Experimental data as given in the DeepSol protein solubility set.

Assay: soluble on expression in E. coli; label from the status in PepcDB or PDB records

Row | Sequence | soluble on expression in E. coli
1 | MSLKAIKNGTILTGTGETIKQGTLLIQDGKVLEVGQRVDTPANAKLIDATGKYVTPGLIDVHTHIGVFSEGLGRTGHDFNETTAAATPYIRAIDGIYPFDQGFEDARQSGVTTVQIMPGSANVIGGEMVTVKTAGTVVDEMIVRAPSGMKAAFGENPKNVHGGKGKLPATRMGVAALFRQQLYQAQDYLKRFEKGELEKRDLGMEQLAKVLRKEIPLRVHAHRADDIATVLRMVDEFDLEATIEHCTEGHLIADHIAKYNVKVSVGPTMTSRTKQELVNKGWHTLIELEKHGIPFSITTDHPVVTINHLVTSAIQAVKAGLSEQSAFQAITLRAAEHIGVEQQVGSLEKGKDGDFVIWSDHPFTATAQVEATYINGKCVTGSHCEGHHHHHH | soluble
2 | MRLEECRKRLEELEAAREELLKVLREMRIHSTKSIALIHAGKVEEAEQELKKAIELLEKVKAYREYPEIYFYLCNDAMQELVEAIAFKNAISGEFTFEIDLEVTPAAFLNGFADAVGELRRYALTKLIEGDFKSAERMLEVMEKIYERLMEFTTFPDKLVSGLRKKLDVARGGIERTKSDYIAAKVARLNESLGGN | not soluble
3 | MGSDKIHHHHHHMKKIVVLGGGPGGLVAAYNLARLLRGKAEITLIDKTGYHLFPPSLLWVMVGQREPEDIMRPLSKLEKHGIKVVTASVESIDPDNNKVATSGGEFEYDYLVVSLGSTPRPELMKADDTVCSPWTVEGALDCRRKLAGFKSGRIIVGAWSWPYKCPPAPFETAFLVKYLLEQRGGDAQVTVVHFWKKPMEPFGPTMAEAFQSFLDMYGVGFKGGVEPMEARGGRLVASSGEEIEYDLAVFAPPHEPPKPVAESPLGDESLGGYMRVDKRTLRSPRYGNVFGVGDIIAPSLGLGMAGIFAHFQAEYVASQIADEILGTYMGEHYNMSGVCVMDLGYAGAAVYCDFSKKVMGEAEYPDCVILGGMRAFRPLKYAFERYWLEKWFT | not soluble
4 | MTQIARIRDNTSERRLQAERLIGARALQEAQALRFSVFSEEFNARLKGAEQGLDIDDYDIHCSHIGVRDLNTGRLVATTRLLDHKAANTLGSFYSEEEFSLHGLAHLQGPILELGRTCVDPAYRNGGTIAVLWSELAEVLNEGGYSYLMGCASIPMQDGGIQAHAIMQRLRERYLCNEHLRAEPKNPLPTLDIPSNVICEMPPLLKAYMRLGARICGEPCWDEDFQVADVFILLKRDDLCPRYARHFKAAV | not soluble
5 | QVQLQQSGPELVRPGVSVKISCKGSGYTFIDEALHWVKQSHAESLEWIGVIRPYSGETNYNQKFKDKATMTVDISSSTAYLELARLTSEDSAIYYCARDWERGDFFDYWGQGTLVTVSSASTKGPSVFPLAPSSKSTSGGTAALGCLVKDYFPEPVTVSWNSGALTSGVHTFPAVLQSSGLYSLSSVVTVPSSSLGTQTYICNVNHKPSNTKVDKKVEPKSCD | soluble
6 | MSLNLREFKEFIDNEMIVILGQMDSPTQIFEHVFLGSEWNASNLEDLQNRGVRYILNVTREIDNFFPGVFEYHNIRVYDEEATDLLAYWNDTYKFISKAKKHGSKCLVHCKMGVSRSASTVIAYAMKEYGWNLDRAYDYVKERRTVTKPNPSFMRQLEEYQGILLASKEGHHHHHH | not soluble
7 | MYILVENAVTSKQLVTGVRTEPHYRYAGYYLKAYEIVANQERDKTKYESLEPAIKALFTLDSEHEKKVRTQLENLKLLTKFKFTGIYTESVDRYNKAVVLQDKGKTEDAETATTNAQT | not soluble
8 | MKNKADNKKRNFLTHSEIESLLKAANTGPHAARNYCLTLLCFIHGFRASEICRLRISDIDLKAKCIYIHRLKKGFSTTHPLLNKEVQALKNWLSIRTSYPHAESEWVFLSRKGNPLSRQQFYHIISTSGGNAGLSLEIHPHMLRHSCGFALANMGIDTRLIQDYLGHRNIRHTVWYTASNAGRFYGIWDRARGRQRHAVL | soluble
9 | MFIVLNAPVRGRYCAPMTQFASPVLHSLLDTDAYKLHMQQAVFHHYYDVHVAAEFRCRGDDLLGIYADAIREQIQAMQHLRLQDDEYQWLSALPFFKADYLNWLREFRFNPEQVTVSNDNGKLDIRLSGPWREVILWEVPLLAVISEMVHRYRSPQADVAQALDTLESKLVDFSALTAGLDMSRFHLMDFGTRRRFSREVQETIVKRLQQESWFVGTSNYDLARRLSLTPMGTQAHEWFQAHQQISPDLANSQRAALAAWLEEYPDQLGIALTDCITMDAFLRDFGVEFASRYQGLRHDSGDPVEWGEKAIAHYEKLGIDPQSKTLVFSDNLDLRKAVELYRHFSSRVQLSFGIGTRLTCDIPQVKPLNIVIKLVECNGKPVAKLSDSPGKTICHDKAFVRALRKAFDLPHIKKASMAGDPLEHHHHHH | not soluble
10 | MGSDKIHHHHHHMNWDDIKIFLEVARAERLSTAAKRLTMDASTVSRRLHKLEESIATKLFDRTQDGHVLTPDGEMLLTSACKMEQDAQHALSSIHNNNEENCGLVRIGVTEALGNFFVSPNLLTLQQQHPSIDVHLLLFSRYVKISRNEADIAIAVERPKSTSMIVSKLCDYKLQLYVHQDYLDHNLKQYPQGITLDNLAEHKWVTYVDNLIFTDQLSYIKELDRYLSGELKANFSSTSIISQYFAIKSGLGIGILPCFLADQDKSLIKLHSQDITISRSFWLVTHPESKRLSHVNTVWQYLKQLVLEHAELLNPKE | not soluble
11 | MGGHHHHHHGENLYFQGISSETGEMGILWEFDPIINKWIRLSMKLKVERKPFAEGALREAYHTVSLGVGTDENYPLGTTTKLFPPIEMISPISKNNEAMTQLKNGTKFVLKLYKKEAEQQASRELYFEDVKMQMVCRDWGNKFNQKKPPKKIEFLMSWVVELIDRSPSSNGQPILCSIEPLLVGEFKKNNSNYGAVLTNRSTPQAFSHFTYELSNKQMIVVDIQGVDDLYTDPQIHTPDGKGFGLGNLGKAGINKFITTHKCNAVCALLDLDVKLGGVLSGNNKKQLQQGTMVMPDILPELMPSDNT | soluble
12 | MAHHHHHHMKFIPLDSFSALNSLLQGVEAQGCCITMRLEAYTCRHTKEERQIANSIACYQNNVQLTPPISPLPTIGAYAGCTQEALPPLVLGGSAENVAASYSLVSPNEIDDRLVYFVAALNTVYESDGYDFSVLRENDFVRYTEPQFRTEVSSTLQSLPEQCRPAVQRFWPTIEEVVENAESGCEYYEFRCPSCNPLADTTVYARHYFVYNRRKKVLVLLVEYGESNPYRGDDGLPHAGDPTSAWDAESPTYASTPDLGEEGEAYDGGKNRQFYGYY | soluble
13 | MGSDKIHHHHHHMPAKVYFTDMTTNPNMNMLQKLELLLKKVELEKIIEKDKFVAVKLHFGEYGNLAFIRPQYVKIIVDQIKKLGGKPFLTDANTLYTGHRSNAVDHLINAYLNGFTYEVTGAPVIIADGLRGSDEIKVKIDGNYVKEAKIGAAIALADAIVAVTHFKGHEATGFGGTIKNVGMGSASRAGKMEQHSESKPYVVEEKCVACGTCAKFCPVGAITVTKVAKIDYEKCIGCGQCIAMCSYGAMSPKWDSSTDSLSKKMAEYAKAVLKDKKAVFISFIMNISPDCDCWNMNKPPVAPDIGIAVSTDPVALDQACIDLVLQKTGKDPFLEVHPDVTWKTQLEYAEEIGLGTREYELVKVACDLK | not soluble
14 | MGSDKIHHHHHHMDAHRYCQERAAASGSSFYYSFVFLPTEVRRAITAFYALCRELDDVVDECHERQLAELKLAWWREEIGRFAAGAATHPATRALADTARGASVQPALLLEIVDGMAMDLEHARYADFRALKLYCHRAASVVGEIAAGIFEGARGEHDREVRRYAHELGLAFQLTNIIRDVGEDARRGRIYLPLDEMARFGVAEADVLEGRDTPAFRALMQFQYERAVAHYERALATLPSAARRAQRPGLVMAAIYRSLLDEIRRDGFPVLRARIALTPLRKLWLASRTWLFP | not soluble
15 | MQTFFIAPTDFGVGLTSISLGLVRTLERAGLKVGFFKPIAQPHPGDLGPERSTELMARTHGLKPPKPLGLAHVERMLGDGQLDELLEEIINLYQQAAVGKDVLVVEGMVPTRSASYAARVNLHLAKSLDAEVILVSAPENEVLTELSGRVELQAQLFGGPKDPKVLGVILNKVRTEESMEVFAARLKEHSPLLRNGDFRLLGCIPYRAELNAPRTRDVAELLGAQ | not soluble
16 | MNQLTSSFIQNLAEDNIYKLPPHSIEAEQSVLGGLMLDNQAWDKVADIIIESDFYRQDHQLIYQHISRLIEQNKPADVITVAESLENAAQLQHAGGLAYIGAIAQNTPSAANIRRYAEIVRERSIMRKL | not soluble
